Drawing on US20190112362A1 (published 2019), this text covers Kd, koff and kon for three molecules.

The test has as its target Monomeric cynomolgus monkey Tau (cynomolgus monkey, UniProt P57786 2-459 (rhesus entry)). Nature of the test: SPR, hIgG captured, cynomolgus Tau monomer analyte, 1:1 model. (Surface plasmon resonance follows binding to a sensor surface in real time, without labels.)

One may read the Kd as the equilibrium constant for the complex coming apart. A word on the koff: it is a measure of how fast the partners let go of each other. The kon is the second-order rate constant of association.

Chain of Monomeric cynomolgus monkey Tau (P57786 other isoform, or with tags, fused parts or gaps limits assumed, form in doubt): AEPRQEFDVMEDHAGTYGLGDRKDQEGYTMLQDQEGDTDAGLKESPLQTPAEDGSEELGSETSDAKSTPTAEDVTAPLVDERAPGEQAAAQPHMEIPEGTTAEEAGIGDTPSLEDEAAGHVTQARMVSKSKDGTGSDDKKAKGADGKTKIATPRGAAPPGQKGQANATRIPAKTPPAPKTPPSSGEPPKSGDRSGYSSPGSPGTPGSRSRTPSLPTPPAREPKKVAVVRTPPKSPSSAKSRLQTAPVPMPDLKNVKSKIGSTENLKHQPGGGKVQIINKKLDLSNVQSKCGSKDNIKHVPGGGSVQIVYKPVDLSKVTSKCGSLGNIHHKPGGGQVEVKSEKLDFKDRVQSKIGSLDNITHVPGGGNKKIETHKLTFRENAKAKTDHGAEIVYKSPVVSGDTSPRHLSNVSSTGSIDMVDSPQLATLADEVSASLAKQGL

B1: hu37D3.v28.A4 (antibody, V domains shown)
VH: EVQLVESGGGLVQPGGSLRLSCAASGLIFRSYGMSWVRQAPGKGLEWVATINSGGTYTYYPDSVKGRFTISRDNSKNTLYLQMNSLRAEDTAVYYCANSYSGAMDYWGQGTLVTVSS
VL: DDVLTQTPLSLPVTPGQPASISCRSSQSIVHSNGNTYLEWYLQKPGQSPQLLIYKVSNRFSGVPDRFSGSGSGTDFTLKISRVEAEDVGVYYCFQGSLVPWTFGQGTKVEIK
notes: also called hu37D3-H9.v28.A4
For the molecule B1, the dissociation constant (Kd) stood at 0.7 nM, the koff was 0.001 s⁻¹ and the kon was 1.7e+06 M⁻¹ s⁻¹.

B2: hu37D3-H9.v5 (antibody, V domains shown)
VH: EVQLVESGGGLVQPGGSLRLSCAASGLIFRSYGMSWVRQAPGKGLEWVATINSGGTYTYYPDSVKGRFTISRDNSKNTLYLQMNSLRAEDTAVYYCANSYSGAMDYWGQGTLVTVSS
VL: EDVLTQTPLSLPVTPGQPASISCRSSQSIVHSNGNTYFEWYLQKPGQSPQLLIYKVSNRFSGVPDRFSGSGSGTDFTLKISRVEAEDVGVYYCFQGSLVPWTFGQGTKVEIK
notes: Kappa2 framework
Regarding B2, the affinity, expressed as Kd, was 0.6 nM; the koff is 0.001 s⁻¹; the kon amounted to 1.5e+06 M⁻¹ s⁻¹.

B3: hu37D3-H9.v1 (antibody, V domains shown)
VH: EVQLVESGGGLVQPGGSLRLSCAASGLIFRSYGMSWVRQAPGKGLEWVATINSGGTYTYYPDSVKGRFTISRDNSKNTLYLQMNSLRAEDTAVYYCANSYSGAMDYWGQGTLVTVSS
VL: EDQLTQSPSSLSASVGDRVTITCRSSQSIVHSNGNTYFEWYQQKPGKSPKLLIYKVSNRFSGVPSRFSGSGSGTDFTLTISSLQPEDFATYYCFQGSLVPWTFGQGTKVEIK
notes: Kappa1 framework
B3 had a dissociation constant (Kd) of 0.8 nM and an on-rate (kon) of 2e+06 M⁻¹ s⁻¹.
